This series is described as follows: soluble on expression in E. coli; label from the status in PepcDB or PDB records.
Consider “MATKARVMYDFAAEPGNNELTVNEGEIITITNPDVGGGWLEGRNIKGERGLVPTDYVEILPSDGKDQFSCGNSVADQAFLDSLSASTAQASSSAASNNHQVGSGNDPWSAWSASKSGNWESSEGWGAQPEGAGAQRNTNTPNNWDTAFGHPQAYQGPATGDDDDWDEDWDGPKSSSYFKDSESADAGGAQRGNSRASSSSMKIPLNKFPGFAKPGTEQYLLAKQLAKPKEKIPIIVGDYGPMWVYPTSTFDCVVADPRKGSKMYGLKSYIEYQLTPTNTNRSVNHRYKHFDWLYERLLVKFGSAIPIPSLPDKQVTGRFEEEFIKMRMERLQAWMTRMCRHPVISESEVFQQFLNFRDEKEWKTGKRKAERDELAGVMIFSTMEPEAPDLDLVEIEQKCEAVGKFTKAMDDGVKELLTVGQEHWKRCTGPLPKEYQKIGKALQSLATVFSSSGYQGETDLNDAITEAGKTYEEIASLVAEQPKKDLHFLMECNHEYKGFLGCFPDIIGTHKGAIEKVKESDKLVATSKITLQDKQNMVKRVSIMSYALQAEMNHFHSNRIYDYNSVIRLYLEQQVQFYETIAEKLRQALSRFPVM”, for which the “soluble on expression in E. coli” value is given as “soluble”. Take “MATKFNRILVGVDDSADALLAFDYAIHQAKQDGAELVIISILENDEMNVYQALSKDYIHGERQELEQHILKYQKQAQAAGVTKVHAMIAEGEPGETIVKEVIPHVQPDLLIIGSLAKKGIAKHFGSQAAYMAKYAPISVLVIR”: the “soluble on expression in E. coli” value is on record as “not soluble”. The entry for “MATNESLKEQLAKRNGRKPAANGNGEPITLKALLASPKVKKRFEEVLDKRAPQFMTSIINLYSNDSGLQKCDPMTVISSAMVAASLDLPIDKNLGYAWIVPYYDRKTKSYRAQFQLGYKGYIQLALRSGQYRYINAIPVRKGELIKWDPLTEEIEIDFEARESDEVIGYAAFFELLNGFRKTVYWRKEDVEAHRQKYSKSGFGWENDWDAMALKTVIKSLLSRWGILSVEMQKAVIEDDEERLNPPADNVVEIEPEKPEVPENDEPVFELPLDVEVEVPFEEDEKDGDDQEG” is “not soluble”; for “MATQRAHRAETPAHPNRLWIWEKHVYLDEFRRSWLPVVIKSNEKFQVILRQEDVTLGEAMSPSQLVPYELPLMWQLYPKDRYRSADSMYWQILYHIKFRDVEDMLLELIDSESNDE” it is “soluble”; for “MATSKILLYYAFTPLSDPKAVQLWQRELCESLNLRGRILISTHGINGTVGGDIDDCKAYIKKTREYPGFNRMQFKWSEGGAEDFPKLSVKVRDEIVAFGAPDELKVDENGVVGGGVHLKPQQVNELVEARGDEVVFFDGRNAMEAQIGKFKDAVVPDVETTHDFIAEIESGKYDDLKDKPVVTYCTGGIRCEILSSLMINRGFKEVYQIDGGIVRYGEQFGNKGLWEGSLYVFDKRMHMEFGEDYKEVGHCIHCDTPTNKFEHCLNEDDCRELVLMCPDCFANVETRHCKRERCAAIAADFAEQGIDPLVTS” it is “not soluble”. The entry for “MATSSSAFDDELPMEEGMPELLDDEDVPSTLPSLLEQNLDTAPKGDEFKLVKRKRKSGNAIDVVMEDVSQVDEDATADTADDSTGPKSSKRTKGVKGESRVVPVPKHRYTPLKDNWVNIFTPIVKNLGLQVRFNLKKRQVEIRNPVDREDTTDLQKATDFVRAFILGFEVNDAIALIRLDHLFLETFEVADVKHSLKGDHVSRAIGRIAGKDGRTKLVIENTTKTRIVVANTKIHILGAYQNLKLARNAVCSLILGSNPSKVYGSLRNMASRGAERL” is “not soluble”; for “MATTAQKIKEVEDEMAKTQKNKATAKHLGMLKAKLAKLKRELITPTGGGGGGGLGFDVARTGIGTVGFIGFPSVGKSTLMTQLTGTRSEAAAYEFTTLTTVPGVLQYNGAKIQILDLPGIIEGAKDGRGRGKQVITVARTCNLIFIVLDVLKPMSHKRIIEEELEGFGIRLNKEPPNIVFKKKERGGINITNTVPLTHIDLDEIRAVCSEYRVNSADIAFRCDATIDDLIDVLEGNRVYIPALYVLNKIDSISIEELDLIDRIPNAVPICGNRGWNIDELKETMWDYLNLVRVYTRPRGLEPDYSEPVILRTGHSTVEDFCNNIHSSIKSQFKHAYVWGKSVPYPGMRVGLSHVLLDEDVVTIVKK” it is “not soluble”; for “MATTTPERVMQETMDYHALNAMLNLYDKAGHIQFDKDQQAIDAFFATHVRPHSVTFASQHERLGTLVREGYYDDAVLARYDRAFVLRLFEHAHASGFRFQTFLGAWKFYTSYTLKTFDGKRYLEHFEDRVTMVALTLAQGDETLATQLTDEMLSGRFQPATPTFLNCGKQQRGELVSCFLLRIEDNMESIGRAVNSALQLSKRGGGVAFLLSNLREAGAPIKRIENQSSGVIPVMKMLEDAFSYANQLGARQGAGAVYLHAHHPDILRFLDTKRENADEKIRIKTLSLGVVIPDITFRLAKENAQMALFSPYDIQRRYGKPFGDIAISERYDELIADPHVRKTYINARDFFQTLAEIQFESGYPYIMFEDTVNRANPIAGRINMSNLCSEILQVNSASRYDDNLDYTHIGHDISCNLGSLNIAHVMDSPDIGRTVETAIRGLTAVSDMSHIRSVPSIAAGNAASHAIGLGQMNLHGYLAREGIAYGSPEALDFTNLYFYTITWHAVHTSMRLARERGKTFAGFAQSRYASGDYFTQYLQDDWQPKTAKVRALFARSGITLPTREMWLKLRDDVMRYGIYNQNLQAVPPTGSISYINHATSSIHPIVAKIEIRKEGKTGRVYYPAPFMTNENLDMYQDAYDIGPEKIIDTYAEATRHVDQGLSLTLFFPDTATTRDINKAQIYAWRKGIKSLYYIRLRQLALEGTEIEGCVSCAL” it is “soluble”. The entry for “MATVSTNEFKGGLKIMLDNEPCVILENEYVKPGKGQAFNRVRIRKLLTGKVLEKTFKSGDTAEVADVVDIDLDYLYNDGEFYHFMNNSTFEQLAADAKAVGENAKWLVENNTCMLTLWNGNPIAVTPPNFVELEVTETDPGVKGDTQGTGGKPATLSTGAVVRVPLFVQIGEVIKVDTRSAEYVGRVK” is “soluble”. On to “MAVASTSTSDGMLTLDLIQEEDPSPEEPTSCAESFRVDLDKSVAQLAGSRRRADSDRIQPSADRASSLSRPWEKTDKGATYTPQAPKKLTPTEKGRCASLEEILSQRDAASARTLQLRAEEPPTPALPNPGQLSRIQDLVARKLEETQELLAEVQGLGDGKRKAKDPPRSPPDSESEQLLLETERLLGEASSNWSQAKRVLQEVRELRDLYRQMDLQTPDSHLRQTTPHSQYRKSLM”, for which the “soluble on expression in E. coli” value is on record as “soluble”.

As for “MAVCGLGSRLGLGSRLGLRGCFGAARLLYPRFQSRGPQGVEDGDRPQPSSKTPRIPKIYTKTGDKGFSSTFTGERRPKDDQVFEAVGTTDELSSAIGFALELVTEKGHTFAEELQKIQCTLQDVGSALATPCSSAREAHLKYTTFKAGPILELEQWIDKYTSQLPPLTAFILPSGGKISSALHFCRAVCRRAERRVVPLVQMGETDANVAKFLNRLSDYLFTLARYAAMKEGNQEKIYMKNDPSAESEGL”, the “soluble on expression in E. coli” value is “not soluble”. The entry for “MAVKQPVPKDPAKVERIMHAAMHTFAVSGYRDAKTDVIASAATVSKGLLFHYYGSKQRLYLATVQLATDTIIATINQQVFDVPDDLVTLMVRSARYKAAFGKDHPDEMKVLIDAYGALERLPVKIQAQMKILYTKSMTISREMISQVLDKMTLRADVDRDATIALIMGVYNQIFMEFQTYMRENHQVESMADIEWVVSRAKTYMGILEHGFMAADLDDQQ” is “not soluble”.

Regarding “MAVLYKSFQSVLEDKNHKKMFHPRVIYTANISTSQIAKEIAAYSSLSPGDVKNTLDNLVTVMGQHLQASESVSLDGFGTFRMVMKSNGKGVETSEEVSAAQASLTVRFLPNFTKNPDRTTATRSLVTGAKCVRFDRTDTPASGSGNTNKPGGGDGGEGGGEEAPDPTV”, the “soluble on expression in E. coli” value was “not soluble”. The entry for “MAVQFEFYKNPVQGEEEGETSYHPRVVNFQHVTTQRLAVEIHSATTFGKAEVEAMLMELSRCMGNHLREGQRVHLDGVGYFQITLQATEPIHSMAAHADKVKFKSVSFLADRDLKGELIGMHAQRSKYKPHSATLSQEEIDKKLTGYFATHTVLTRSDMQSLCQFTHSMAARHIRRLKEEGSLQNIGIRTQPIYVPCPGHYGK” is “not soluble”. The entry for “MAWYEGAFFYQIFPDRFFRAGPPGRPAPAGPFEPWEAPPTLRGFKGGTLWGVAEKLPYLLDLGVEAIYLNPVFASTANHRYHTVDYFQVDPILGGNEALRHLLEVAHAHGVRVILDGVFNHTGRGFFAFQHLMENGEQSPYRDWYHVKGFPLKAYTAHPNYEAWWGNPELPKLKVETPAVREYLLAVAEHWIRFGVDGWRLDVPNEIPDPTFWREFRQRVKGANPEAYIVGEIWEEADFWLQGDMFDAVMNYPLARAVLGFVGGEALDRDLAAQTGLGRIEPLQALAFSHRLEDLFGRYRPEVVRAQMNLLTSHDTPRLLSLMRGSVERARLALALLFLLPGNPTVYYGEEVGMAGGKDPENRGGMVWEEARWQKDLRETVKRLARLRKEHPALRTAPYLRIYAQDGHLAFARGPYLAVVNASPHPFRQDFPLHGVFPRGGRAVDLLSGEVCTPQGGRLCGPVLPPFSLALWREA” is “soluble”; for “MAYDLWYWDGIPGRGEFVRLALEAGKIPYRDRAREPGEDMLADMRRRRDTAPFAPPYLVADGMTIAQTANILLFLGVEHGLAPPDRAGRLWVNQLQLTIADLTAEAHDVHHPVAAGLYYEDQQDVALRRAADFRETRMPKFMQYFEQALDRPGGWLTDMGRWSYADLSLYHVVEGLLHAFPRRMRTLMHRYPRLMTLHARVAELPELRGYLASDRRLPFGDGIFRHYPELDGA” it is “not soluble”. Take “MAYSKIRQPKLSDVIEQQLEFLILEGTLRPGEKLPPERELAKQFDVSRPSLREAIQRLEAKGLLLRRQGGGTFVQSSLWQSFSDPLVELLSDHPESQFDLLETRHALEGIAAYYAALRSTDEDKDRIRELHHAIELAQESGDLDAESEAVLQYQIAVTEAAHNVVLLHLLRCMEPMLAQNVRQNFELLYARREMLPLVSTHRTRIFEAIMAGKPEEAREASHRHLAFIEEIMLDRSREESRRERALRRLEQRKN”: the “soluble on expression in E. coli” value is “not soluble”.

With “MAYWLMKSEPDEFSISDLQRLGKARWDGVRNYQARNFLRTMAEGDEFFFYHSSCPEPGIAGIGKIVKTAYPDPTALDPDSHYHDAKATTEKNPWSALDIGFVDIFKNVLGLGYLKQQSQLEQLPLVQKGSRLSVMPVTAEQWAAILALRLEHHHHHH”, the “soluble on expression in E. coli” value is given as “soluble”.

As to “MCEIFAKQPQDNYQFITRSIRIDGHATSVKLESSFWTILEEIASAQDMTVPKFISTVYQEALEYNGEVNNFASLLRCACLTYARQPENTLHQALAQLN”, the “soluble on expression in E. coli” value is “not soluble”. The value for “MCFWPVWNGKHCPHSTGMPATLPGHRKPTFSWPVSISVMKMPDTHTMVATVSRRILPGKPRQCFSLAVLILPLLEHGGYAITELTVTRRNTCGYSFVSGCPTVFSSRDLVGSGEEVRQARDTFLYINTDPTQGWIHYEPAAFSAGAQNKHLPMASLTGSGKHPAAARLNPVSRGPQFITVSLIIALLGTAWYGWQYYERWQTEKAAQAAVARQATEERITPPWPGLPETDAFIRGCADIWTSLPLSAAGWRYSLAECSTDGGSGNLRASYTNTAGATVTDFIRRISDMTDSRPFIVMPEGKTGGIGLPVTFRLSENAVTVDALPETAVLQERLTSLAQSMQLKLDWQEVNNSVTDENGQIIQPPWKEYDLQIQTTLPAHHLAERLKEPSVRFISVTRQLENGRFHYQFTGKYYARLEHHHHHH” was “not soluble”.

The record behind these values is the DeepSol protein solubility set.
